Reference: paper doi:10.1101/2022.06.12.495819 (bioRxiv, 2022)

Assays:
[1] = biological target: Tomato SlDXS1, truncated version lacking the N-terminal plastid targeting peptide, 6xHis-tagged (Solanum lycopersicum (tomato)); assay: cross-linking
[2] = biological target: Tomato SlDXS1, truncated version lacking the N-terminal plastid targeting peptide, 6xHis-tagged (Solanum lycopersicum (tomato)); assay: dynamic light scattering
cross-linking = biological target: the molecule itself; assay: cross-linking
[3] = biological target: the molecule itself; assay: SDS-PAGE with non-denaturing loading buffer and immunoblot

With “Tomato SlDXS1, truncated version lacking the N-terminal plastid targeting peptide, 6xHis-tagged (enzyme)” the stoichiometry N [1] was 2 and the stoichiometry N [2] was 2.

B1: Escherichia coli deoxyxylulose 5-phosphate synthase (EcDXS), 6xHis-tagged, full length (enzyme)
chain: MSFDIAKYPTLALVDSTQELRLLPKESLPKLCDELRRYLLDSVSRSSGHFASGLGTVELTVALHYVYNTPFDQLIWDVGHQAYPHKILTGRRDKIGTIRQKGGLHPFPWRGESEYDVLSVGHSSTSISAGIGIAVAAEKEGKNRRTVCVIGDGAITAGMAFEAMNHAGDIRPDMLVILNDNEMSISENVGALNNHLAQLLSGKLYSSLREGGKKVFSGVPPIKELLKRTEEHIKGMVVPGTLFEELGFNYIGPVDGHDVLGLITTLKNMRDLKGPQFLHIMTKKGRGYEPAEKDPITFHAVPKFDPSSGCLPKSSGGLPSYSKIFGDWLCETAAKDNKLMAITPAMREGSGMVEFSRKFPDRYFDVAIAEQHAVTFAAGLAIGGYKPIVAIYSTFLQRAYDQVLHDVAIQKLPVLFAIDRAGIVGADGQTHQGAFDLSYLRCIPEMVIMTPSDENECRQMLYTGYHYNDGPSAVRYPRGNAVGVELTPLEKLPIGKGIVKRRGEKLAILNFGTLMPEAAKVAESLNATLVDMRFVKPLDEALILEMAASHEALVTVEENAIMGGAGSGVNEVLMAHRKPVPVLNIGLPDFFIPQGTQEEMRAELGLDAAGMEAKIKAWLA
With B1 the “stoichiometry N” value (cross-linking) was 2.

B2: Tomato SlDXS1, full-length protein with C-terminal myc tag (pGWB420-SlDXS1), expressed in N. benthamiana leaves (enzyme)
chain: SLSESGEYYTQRPPTPILDTVNYPIHMKNLSLKELKQLADELRSDTIFNVSKTGGHLGSSLGVVELTVALHYVFNAPQDRILWDVGHQSYPHKILTGRRDKMSTLRQTDGLAGFTKRSESEYDCFGTGHSSTTISAGLGMAVGRDLKGRNNNVIAVIGDGAMTAGQAYEAMNNAGYLDSDMIVILNDNRQVSLPTATLDGPVAPVGALSSALSRLQSNRPLRELREVAKGVTKQIGGPMHELAAKVDEYARGMISGSGSTLFEELGLYYIGPVDGHNIDDLIAILKEVRSTKTTGPVLIHVVTEKGRGYPYAERAADKYHGVAKFDPATGKQFKASAKTQSYTTYFAEALIAEAEADKDIVAIHAAMGGGTGMNLFHRRFPTRCFDVGIAEQHAVTFAAGLACEGIKPFCAIYSSFMQRAYDQVVHDVDLQKLPVRFAMDRAGLVGADGPTHCGAFDVTYMACLPNMVVMAPSDEAELFHMVATAAAIDDRPSCFRYPRGNGIGVELPAGNKGIPLEVGKGRILIEGERVALLGYGSAVQNCLDAAIVLESRGLQVTVADARFCKPLDHALIRSLAKSHEVLITVEEGSIGGFGSHVVQFMALDGLLDGKLKWRPIVLPDRYIDHGSPVDQLAEAGLTPSHIAATVFNILGQTREALEVMT
For B2, the “stoichiometry N” value [3] was 2.
